Measurements: the supplement of paper PMC6757056
± gives the standard deviation of the averaged measurements.

B1: library; a variant is named by its letters at N, in order (parent)
chain: GCUGUCACCGAGAAACUGUGAAGUAUAUCUUAAACCUGGGCACUUAAAAGAUAUAUGGAGUUAGUAGUGCAACCUGCUCGGUCUGAUGAGUCCNNNNNNGGACGAAACAGC

Columns and labels:
cyclic di-GMP [1] = variants of: B1; assay: FACS-Seq fitted mean relative fluorescence mCherry/BFP without ligand (log10 relative fluorescence); HEK293T; ligand: cyclic di-GMP (c-di-GMP-II aptamer); higher = higher reporter protein expression; conditions: ligand present: no
Procedure: (§1)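 Hammerhead (sTRSV) ribozyme switch libraries with a ligand aptamer grafted on stem I and a randomized N4-6 loop II, cloned into the 3' UTR of mCherry and transiently transfected into HEK293T cells; RNA-Seq 72 h post transfection with ligand added 1 h before transfection; RNA read count / plasmid DNA read count normalized to the non-cleaving sTRSVctl (x100), log10; sequences with >100 DNA reads. FACS-Seq: lentiviral library sorted into 6 bins after 48 h ligand, log-normal fit mean of mCherry/BFP scaled to controls. Printed sequences are partial switch sequences.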

cyclic di-GMP [2] = variants of: B1; assay: normalized RNA/DNA level without ligand (relative to sTRSVctl = 100) (log10 (% of sTRSVctl)); HEK293T; ligand: cyclic di-GMP (c-di-GMP-II aptamer); higher = less ribozyme self-cleavage, higher mRNA level; conditions: reporter: mCherry (pCS4076), ligand present: no
Procedure: as §1

cyclic di-GMP [3] = variants of: B1; assay: FACS-Seq fitted mean relative fluorescence mCherry/BFP with ligand (log10 relative fluorescence); HEK293T; ligand: cyclic di-GMP (c-di-GMP-II aptamer); ligand concentration (+) FACS-Seq: 1 mM; higher = higher reporter protein expression; conditions: ligand present: yes
Procedure: as §1

cyclic di-GMP [4] = variants of: B1; assay: normalized RNA/DNA level with ligand (relative to sTRSVctl = 100) (log10 (% of sTRSVctl)); HEK293T; ligand: cyclic di-GMP (c-di-GMP-II aptamer); ligand concentration (+) RNA-Seq: 1 mM; higher = less ribozyme self-cleavage, higher mRNA level; conditions: reporter: mCherry (pCS4076), ligand present: yes
Procedure: as §1

Variant | FACS-Seq fitted mean (log10) (cyclic di-GMP [1]) | normalized RNA/DNA level without ligand (log10) (cyclic di-GMP [2]) | FACS-Seq fitted mean (log10) (cyclic di-GMP [3]) | normalized RNA/DNA level with ligand (log10) (cyclic di-GMP [4])
UACUAU | -0.131 ± 0.0047 | 1.67 ± 0.051 | 0.0664 ± 0.13 | 1.83 ± 0.15
UACCAU | -0.473 ± 0.0049 | 1.663 ± 0.0085 | -0.0951 ± 0.092 | 1.8 ± 0.12
AACUAA | -0.473 ± 0.029 | 1.51 ± 0.035 | -0.168 ± 0.1 | 1.74 ± 0.11
AACCCC | -0.0752 ± 0.016 | 1.78 ± 0.046 | 0.263 ± 0.041 | 1.89 ± 0.14
AACCCU | 0.095 ± 0.16 | 1.69 ± 0.032 | 0.195 ± 0.28 | 1.84 ± 0.082
GACGGA | -0.135 ± 0.078 | 1.47 ± 0.078 | 0.0761 ± 0.072 | 1.63 ± 0.076
UACAGA | -0.198 ± 0.37 | 1.61 ± 0.052 | -0.101 ± 0.13 | 1.75 ± 0.14
AACUCC | 0.000732 ± 0.015 | 1.815 ± 0.0033 | 0.225 ± 0.013 | 1.91 ± 0.097
UACGAA | -0.516 ± 0.06 | 1.61 ± 0.03 | -0.204 ± 0.067 | 1.76 ± 0.1
AACCUU | -0.0813 ± 0.093 | 1.66 ± 0.039 | 0.232 ± 0.016 | 1.82 ± 0.11
AAAUUG | -0.199 ± 0.011 | 1.56 ± 0.096 | -0.00914 ± 0.051 | 1.72 ± 0.097
CACUUA | -0.231 ± 0.015 | 1.43 ± 0.04 | -0.0377 ± 0.081 | 1.59 ± 0.11
CACUUG | -0.104 ± 0.083 | 1.74 ± 0.026 | 0.131 ± 0.0033 | 1.87 ± 0.12
AAAUGU | -0.132 ± 0.022 | 1.54 ± 0.03 | 0.136 ± 0.093 | 1.78 ± 0.09
AAAUGA | -0.5596 ± 0.00088 | 1.43 ± 0.061 | -0.289 ± 0.037 | 1.62 ± 0.089
AAAUGC | -0.0259 ± 0.11 | 1.642 ± 0.01 | 0.294 ± 0.022 | 1.79 ± 0.09
AACAAG | -0.43 ± 0.028 | 1.523 ± 0.0073 | -0.281 ± 0.037 | 1.73 ± 0.088
AACAAU | -0.133 ± 0.038 | 1.594 ± 0.0028 | 0.103 ± 0.014 | 1.71 ± 0.13
AACGAG | -0.834 ± 0.078 | 1.53 ± 0.1 | -0.763 ± 0.099 | 1.71 ± 0.069
AACGAU | -0.207 ± 0.075 | 1.57 ± 0.052 | 0.0583 ± 0.17 | 1.76 ± 0.096
GACGAU | -0.37 ± 0.031 | 1.59 ± 0.021 | -0.0677 ± 0.044 | 1.74 ± 0.14
GACGAA | -0.377 ± 0.016 | 1.43 ± 0.12 | -0.01 ± 0.049 | 1.65 ± 0.085
GAAUUG | -0.422 ± 0.012 | 1.57 ± 0.096 | -0.0224 ± 0.071 | 1.74 ± 0.11
CACCCU | -0.383 ± 0.019 | 1.65 ± 0.082 | -0.109 ± 0.033 | 1.75 ± 0.038

Variant | FACS-Seq fitted mean (log10) (cyclic di-GMP [1]) | normalized RNA/DNA level without ligand (log10) (cyclic di-GMP [2]) | FACS-Seq fitted mean (log10) (cyclic di-GMP [3]) | normalized RNA/DNA level with ligand (log10) (cyclic di-GMP [4])
UACCCA | -0.0154 ± 0.2 | 1.73 ± 0.074 | 0.278 ± 0.097 | 1.86 ± 0.13
UACCCU | -0.513 ± 0.0088 | 1.74 ± 0.024 | -0.201 ± 0.055 | 1.87 ± 0.09
AACCAU | -0.0934 ± 0.098 | 1.6 ± 0.025 | 0.0926 ± 0.016 | 1.76 ± 0.15
AACCAA | -0.517 ± 0.035 | 1.43 ± 0.082 | -0.235 ± 0.052 | 1.63 ± 0.1
CACACA | -0.628 ± 0.032 | 1.45 ± 0.11 | -0.354 ± 0.056 | 1.64 ± 0.089
CACACU | -0.437 ± 0.0083 | 1.52 ± 0.12 | -0.0902 ± 0.05 | 1.7 ± 0.067
CACAGU | -0.189 ± 0.13 | 1.74 ± 0.045 | 0.105 ± 0.062 | 1.85 ± 0.064
CACAGA | -0.384 ± 0.025 | 1.53 ± 0.058 | -0.0508 ± 0.039 | 1.74 ± 0.1
CACGCA | -0.406 ± 0.0063 | 1.61 ± 0.04 | -0.00856 ± 0.11 | 1.79 ± 0.11
GAAUGC | 0.00373 ± 0.18 | 1.63 ± 0.013 | 0.31 ± 0.049 | 1.75 ± 0.12
GAAUGG | -0.119 ± 0.036 | 1.62 ± 0.041 | 0.0864 ± 0.016 | 1.75 ± 0.086
AACUGA | -0.155 ± 0.014 | 1.54 ± 0.047 | 0.0803 ± 0.017 | 1.68 ± 0.12
AACUGG | -0.198 ± 0.17 | 1.59 ± 0.049 | 0.149 ± 0.048 | 1.77 ± 0.17
CACGAA | -0.353 ± 0.036 | 1.33 ± 0.14 | -0.00961 ± 0.027 | 1.53 ± 0.094
GACUUA | -0.438 ± 0.043 | 1.5846 ± 6e-05 | -0.219 ± 0.05 | 1.76 ± 0.1
AACACU | 0.049 ± 0.17 | 1.68 ± 0.033 | 0.373 ± 0.032 | 1.81 ± 0.096
AACACA | -0.289 ± 0.0062 | 1.54 ± 0.031 | -0.0564 ± 0.0031 | 1.75 ± 0.12
AACGGA | -0.525 ± 0.046 | 1.32 ± 0.14 | -0.253 ± 0.067 | 1.53 ± 0.13
GACAGA | -0.179 ± 0.21 | 1.52 ± 0.065 | 0.0814 ± 0.049 | 1.7 ± 0.068
CACAAA | -0.504 ± 0.031 | 1.24 ± 0.14 | -0.278 ± 0.055 | 1.46 ± 0.12
CACGUG | -0.341 ± 0.18 | 1.67 ± 0.019 | -0.148 ± 0.21 | 1.84 ± 0.085
AACAUC | -0.233 ± 0.056 | 1.593 ± 0.012 | 0.0469 ± 0.033 | 1.75 ± 0.13
AACAUG | 0.0898 ± 0.039 | 1.54 ± 0.053 | 0.286 ± 0.039 | 1.72 ± 0.081
CACCUA | -0.26 ± 0.028 | 1.36 ± 0.15 | 0.0161 ± 0.13 | 1.58 ± 0.12

Variant | FACS-Seq fitted mean (log10) (cyclic di-GMP [1]) | normalized RNA/DNA level without ligand (log10) (cyclic di-GMP [2]) | FACS-Seq fitted mean (log10) (cyclic di-GMP [3]) | normalized RNA/DNA level with ligand (log10) (cyclic di-GMP [4])
CACCUU | -0.0716 ± 0.019 | 1.48 ± 0.076 | 0.228 ± 0.071 | 1.67 ± 0.066
CACAUA | -0.521 ± 0.032 | 1.26 ± 0.07 | -0.272 ± 0.044 | 1.52 ± 0.093
CACAUU | -0.323 ± 0.046 | 1.58 ± 0.025 | -0.0216 ± 0.035 | 1.7 ± 0.1
CACGGA | -0.398 ± 0.042 | 1.48 ± 0.092 | 0.0123 ± 0.14 | 1.72 ± 0.06
GACACU | -0.276 ± 0.038 | 1.705 ± 0.016 | -0.141 ± 0.073 | 1.83 ± 0.12
AACGCU | -0.0259 ± 0.099 | 1.704 ± 0.013 | 0.296 ± 0.0034 | 1.86 ± 0.076
AACGCC | -0.235 ± 0.048 | 1.75 ± 0.022 | 0.192 ± 0.046 | 1.9 ± 0.15
UACAAC | 0.031 ± 0.034 | 1.68 ± 0.03 | 0.268 ± 0.013 | 1.8 ± 0.11
UACGGA | -1.08 ± 0.21 | 1.61 ± 0.053 | -0.994 ± 0.18 | 1.76 ± 0.1
GACAAG | -0.339 ± 0.07 | 1.55 ± 0.029 | -0.0999 ± 0.034 | 1.72 ± 0.084
GACAAC | -0.156 ± 0.0096 | 1.63 ± 0.022 | 0.197 ± 0.1 | 1.82 ± 0.12
CACUAA | -0.523 ± 0.058 | 1.3 ± 0.16 | -0.243 ± 0.011 | 1.48 ± 0.13
UAAUGA | -0.416 ± 0.019 | 1.597 ± 0.0061 | -0.112 ± 0.13 | 1.77 ± 0.086
UAAUGC | -0.174 ± 0.058 | 1.69 ± 0.032 | -0.398 ± 0.12 | 1.84 ± 0.073
AACAGA | -0.897 ± 0.023 | 1.39 ± 0.14 | -0.683 ± 0.0078 | 1.59 ± 0.11
AACAGU | -1.23 ± 0.038 | 1.57 ± 0.076 | -1.08 ± 0.027 | 1.76 ± 0.063
UACGCU | -0.169 ± 0.063 | 1.71 ± 0.032 | 0.108 ± 0.051 | 1.86 ± 0.098
GACAUA | -0.45 ± 0.0083 | 1.52 ± 0.04 | -0.156 ± 0.096 | 1.68 ± 0.064
UAAUUU | -0.1701 ± 0.00076 | 1.688 ± 0.0068 | -0.0196 ± 0.026 | 1.87 ± 0.11
CAAUGU | 0.349 ± 0.071 | 1.75 ± 0.019 | 0.4491 ± 0.001 | 1.87 ± 0.11
CACUGU | -0.215 ± 0.023 | 1.709 ± 0.017 | 0.0975 ± 0.08 | 1.83 ± 0.11
GACCUG | -0.44 ± 0.12 | 1.66 ± 0.022 | -0.213 ± 0.13 | 1.81 ± 0.11
GACCUA | -0.232 ± 0.041 | 1.621 ± 0.011 | 0.101 ± 0.016 | 1.77 ± 0.11
UACGUG | -0.864 ± 0.019 | 1.69 ± 0.031 | -0.635 ± 0.083 | 1.85 ± 0.12
